Values of other authors as cited in patent US20050191360A1, “Particles for inhalation having rapid release properties” (Advanced Inhalation Research, Inc., priority 2004, published 2005).

Settings: rat, in vivo

In the case of “PTH34: parathyroid hormone fragment given as dry powder formulation via intratracheal delivery (Patton et al.)”, the “time at which the peak PTH level was reached” value is listed as “about 15 minutes”.
